Source: article PMC9150345, “Trimeric complexes of Antp-TBP with TFIIEβ or Exd modulate transcriptional activity” (Hereditas, 2022)

T1: hTBPΔQ40, hTBP lacking the Poly-glutamine region (amino acids 50-102), fused to the N-terminal fragment of … (human, UniProt P20226 1-339, lacking the Poly-glutamine region (amino acids 50-102))
T1 construct: made by site-directed mutagenesis; source: HEK293, transfected, in living cells
T1 sequence (looked up): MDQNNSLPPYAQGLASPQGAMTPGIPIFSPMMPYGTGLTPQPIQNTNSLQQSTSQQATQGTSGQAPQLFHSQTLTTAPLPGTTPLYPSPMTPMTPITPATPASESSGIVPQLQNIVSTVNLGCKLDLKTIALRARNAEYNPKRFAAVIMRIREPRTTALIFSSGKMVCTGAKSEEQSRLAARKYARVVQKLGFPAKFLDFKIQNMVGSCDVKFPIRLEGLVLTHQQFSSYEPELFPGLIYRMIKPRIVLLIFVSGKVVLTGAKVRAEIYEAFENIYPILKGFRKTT

B1: AntpΔN, Antp lacking the N-terminal region (amino acids 1-269), fused to the C-terminal fragment of Venus (domain or fragment)
chain: not shown
notes: Antennapedia (Antp) lacking the N-terminal region (amino acids 1-269); source: HEK293, transfected, in living cells
B2: Antennapedia (Antp), fused to the C-terminal fragment of Venus (natural protein)
chain: not shown
notes: Antennapedia (Antp) Hox protein; also called VCAntp; Antp WT; source: HEK293, transfected, in living cells
B3: AntpQ6, Antp with deletion of three glutamines (amino acids 150-152) and substitution of three glutamines to alanines (amino acids 153-155), fused to the … (natural protein)
chain: not shown
notes: Antennapedia (Antp) with deletion of three glutamines (150-152) and three glutamines changed to alanines (153-155); source: HEK293, transfected, in living cells
B4: AntpΔHD, Antp without the YPWM motif and homeodomain (amino acids 245-363), fused to the C-terminal fragment of Venus (natural protein, Drosophila, UniProt P02833 1-378, looked up)
chain: MTMSTNNCESMTSYFTNSYMGADMHHGHYPGNGVTDLDAQQMHHYSQNANHQGNMPYPRFPPYDRMPYYNGQGMDQQQQHQVYSRPDSPSSQVGGVMPQAQTNGQLGVPQQQQQQQQQPSQNQQQQQAQQAPQQLQQQLPQVTQQVTHPQQQQQQPVVYASCKLQAAVGGLGMVPEGGSPPLVDQMSGHHMNAQMTLPHHMGHPQAQLGYTDVGVPDVTEVHQNHHNMGMYQQQSGVPPVGAPPSGGEGDEITPPNSPQ
notes: Antennapedia (Antp) without the HD (amino acids 245-363); the text calls it the YPWM-HD deletion; source: HEK293, transfected, in living cells
B5: AntpQ9, Antp with deletion of the 9-polyQ stretch (amino acids 110-118), fused to the C-terminal fragment of Venus (natural protein)
chain: not shown
notes: Antennapedia (Antp) with deletion of the 9-polyQ stretch (amino acids 110-118); source: HEK293, transfected, in living cells
B6: AntpΔPolyQ, Antp with deletion of PolyQ regions (amino acids 66-136), fused to the C-terminal fragment of Venus (natural protein)
chain: not shown
notes: Antennapedia (Antp) with deletion of PolyQ regions (amino acids 66-136); source: HEK293, transfected, in living cells
B7: AntpQ5, Antp with the 5-polyQ stretch mutagenized to alanines (amino acids 123-127), fused to the C-terminal fragment of Venus (natural protein)
chain: not shown
notes: Antennapedia (Antp) in which the 5-polyQ stretch was mutagenized to alanines (amino acids 123-127); source: HEK293, transfected, in living cells

molecular target: T1, hTBPΔQ40, hTBP lacking the …; test: split reporter (BiFC, NanoBiT); BiFC in HEK293 cells co-transfected with VC- and VN- constructs and pCAG-mCherry; read 48 h after transfection; interaction percent = green cells per 100 red cells; settings: partners not purified

Binder	percent of transfected cells showing BiFC
B1	14%
B2	41%

molecular target: T2, TATA-binding protein (hTBP), fused to the N-terminal fragment of Venus (human, UniProt P20226 1-339); test: as above; settings: partners not purified
T2 construct: also called VNTBP; source: HEK293, transfected, in living cells

Binder	percent of transfected cells showing BiFC
B3	63%
B4	74%
B5	57%
B1	51%
B6	51%
B2	77%
B7	74%
